Patent US20140271457A1 (AbbVie / Abbott, published 2014)

target: Recombinant Human IL-13 (human, UniProt P35225 35-146, limits assumed); experiment: Biacore SPR
Procedure: The BIACORE assay (GE, Healthcare Piscataway, N.J.) determined the affinity of antibodies or DVD-Ig with kinetic measurements of on-rate and off-rate constants. Binding of antibodies or DVD-Ig proteins to a target antigen (for example, a purified recombinant target antigen) was determined by surface plasmon resonance-based measurements with a Biacore T200 using running HBS-EP+buffer from GE Healthcare at 25° C. All chemicals were obtained from GE Healthcare or otherwise from a different source as described in the text. For example, approximately 5000 RU of goat anti-mouse IgG, (Fcγ), fragment specific polyclonal antibody (Pierce Biotechnology Inc, Rockford, Ill.) diluted in 10 mM sodium acetate (pH 4.5) was directly immobilized across a CM5 research grade biosensor chip using a standard amine coupling kit according to manufacturer's instructions. Unreacted moieties on the biosensor surface were blocked with ethanolamine. Modified carboxymethyl dextran surface in flowcell 1 was used as a reference surface. Rate constants were derived by making kinetic binding measurements at different antigen concentrations ranging from 0.8-100 nM. Binding was recorded as a function of time and kinetic rate constants were calculated. In this assay, association rate was evaluated for 5 min and dissociation was monitored for 10 min. For kinetic screening analysis, rate equations derived from the 1:1 binding model were fitted simultaneously to association and dissociation phases of all injections (using global fit analysis with Rmax fit locally to account for capture variations) with the use of Biaevaluation software. Purified antibodies or DVD-Ig proteins were diluted in HEPES-buffered saline for capture across goat anti-mouse IgG specific reaction surfaces. Antibodies or DVD-Ig proteins to be captured as a ligand were injected over reaction matrices at a flow rate of 5 μl/minute. The association and dissociation rate constants, kₒₙ (M⁻¹ s⁻¹) and koff (s⁻¹) were determined under a continuous flow rate of 50 μl/minute. Rate constants were derived by making kinetic binding measurements at different antigen concentrations ranging from 0.8-100 nM. Binding was recorded as a function of time and kinetic rate constants were calculated. In this assay, association rate was evaluated for 5 min and dissociation was monitored for 10 min.

Chain of Recombinant Human IL-13 (P35225 35-146 limits assumed): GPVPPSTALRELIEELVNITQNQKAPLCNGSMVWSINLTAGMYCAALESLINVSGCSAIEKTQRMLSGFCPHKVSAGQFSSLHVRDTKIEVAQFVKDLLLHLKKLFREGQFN

Kd	koff	kon	Binder
0.37 nM	8.8e-05 s⁻¹	240000 M⁻¹ s⁻¹	DVD3173 (bispecific antibody, IgG1, DVD-Ig; wt hIgG1 + kappa constants) VH: EVQLVQSGAEVKKPGASVKVSCKASGYTFNNYGIIWVRQAPGQGLEWMGWINTYTGKPTYAQKFQGRVTMTTDTSTSTAYMELSSLRSEDTAVYYCARKLFNTVAVTDNAMDYWGQGTTVTVSSGGGGSGGGGSEVQLVQSGAEVKKPGASVKVSCKASGYTFTSYWMHWVRQAPGQGLEWIGNINPKGGSNIYNEKFQGRVTMTRDTSISTAYMELSRLRSDDTAVYYCARLDYFGDSFDLWGQGTTVTVSS VL: DIQMTQSPSSLSASVGDRVTITCRASQDIENYLNWYQQKPGKAPKLLIYYTSRLQSGVPSRFSGSGSGTDFTLTISSLQPEDFATYFCQQGNTQPPTFGQGTKLEIKRGGSGGGGSGDIQMTQSPSSLSASVGDRVTITCRASQGIRNYLNWYQQKPGKAPKLLIYYASNLEVGVPSRFSGSGSGTDYTLTISSLQPEDFATYYCQQDNRFPYTFGGGTKVEIKR
< 0.017 nM	< 1e-06 s⁻¹	58000 M⁻¹ s⁻¹	DVD3116 (bispecific antibody, IgG1, DVD-Ig; wt hIgG1 + kappa constants) VH: EVQLVQSGAEVKKPGASVKVSCKASGYTFNNYGIIWVRQAPGQGLEWMGWINTYTGKPTYAQKFQGRVTMTTDTSTSTAYMELSSLRSEDTAVYYCARKLFNTVAVTDNAMDYWGQGTTVTVSSASTKGPEVQLVQSGAEVKKPGASVKVSCKASGYTFTTYGVSWVRQAPGQGLEWMGEIYPGNYNTYYNEKFRGRVTMTTDTSTSTAYMELRSLRSDDTAVYYCARWRTSYFSDYGYFDYWGQGTTVTVSS VL: DIQMTQSPSSLSASVGDRVTITCRASQDIENYLNWYQQKPGKAPKLLIYYTSRLQSGVPSRFSGSGSGTDFTLTISSLQPEDFATYFCQQGNTQPPTFGQGTKLEIKRTVAAPSVFIFPPDVVMTQSPLSLPVTLGQPASISCRSSQSLVHSHGNTYLHWYQQRPGQSPRLLIYTVSNRFSGVPDRFSGSGSGTDFTLKISRVEAEDVGVYYCSQSTHVPYTFGGGTKVEIKR
0.9 nM	7.7e-05 s⁻¹	85000 M⁻¹ s⁻¹	DVD3174 (bispecific antibody, IgG1, DVD-Ig; wt hIgG1 + kappa constants) VH: EVQLVQSGAEVKKPGASVKVSCKASGYTFNNYGIIWVRQAPGQGLEWMGWINTYTGKPTYAQKFQGRVTMTTDTSTSTAYMELSSLRSEDTAVYYCARKLFNTVAVTDNAMDYWGQGTTVTVSSASTKGPEVQLVQSGAEVKKPGASVKVSCKASGYTFTSYWMHWVRQAPGQGLEWIGNINPKGGSNIYNEKFQGRVTMTRDTSISTAYMELSRLRSDDTAVYYCARLDYFGDSFDLWGQGTTVTVSS VL: DIQMTQSPSSLSASVGDRVTITCRASQDIENYLNWYQQKPGKAPKLLIYYTSRLQSGVPSRFSGSGSGTDFTLTISSLQPEDFATYFCQQGNTQPPTFGQGTKLEIKRTVAAPDIQMTQSPSSLSASVGDRVTITCRASQGIRNYLNWYQQKPGKAPKLLIYYASNLEVGVPSRFSGSGSGTDYTLTISSLQPEDFATYYCQQDNRFPYTFGGGTKVEIKR

target: Recombinant Human TNF-α/TNFSF1A (human, UniProt P01375 77-233); experiment: cell-based or functional assay
Sequence (P01375 77-233 limits assumed): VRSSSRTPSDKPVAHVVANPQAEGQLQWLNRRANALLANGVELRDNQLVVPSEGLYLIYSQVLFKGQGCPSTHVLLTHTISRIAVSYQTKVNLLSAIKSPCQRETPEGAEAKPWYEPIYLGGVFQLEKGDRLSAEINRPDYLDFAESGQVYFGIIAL

C-Terminal VD huTNFα Neutralization Assay IC50	N-Terminal VD huTNFα Neutralization Assay IC50	Binder
0.673 nM	–	DVD3044 (bispecific antibody, IgG1) VH: EVQLVESGGGLVQPGGSLRLSCAASGFSLTNNNVNWVRQAPGKGLEWVGGVWAGGATDYNSALKSRFTISRDNSKNTAYLQMNSLRAEDTAVYYCARDGGYSSSTLYAMDAWGQGTLVTVSSASTKGPEVQLVQSGAEVKKPGASVKVSCKASGYTFNNYGIIWVRQAPGQGLEWMGWINTYTGKPTYAQKFQGRVTMTTDTSTSTAYMELSSLRSEDTAVYYCARKLFNTVAVTDNAMDYWGQGTTVTVSS VL: DIQMTQSPSSLSASVGDRVTITCRASEDIYNALAWYQQKPGKAPKLLIYNTDTLHTGVPSRFSGSGSGTDYTLTISSLQPEDFATYFCQHYFHYPRTFGQGTKVEIKRTVAAPDIQMTQSPSSLSASVGDRVTITCRASQDIENYLNWYQQKPGKAPKLLIYYTSRLQSGVPSRFSGSGSGTDFTLTISSLQPEDFATYFCQQGNTQPPTFGQGTKLEIKR
0.128 nM	–	DVD3043 (bispecific antibody, IgG1) VH: EVQLVESGGGLVQPGGSLRLSCAASGFSLTNNNVNWVRQAPGKGLEWVGGVWAGGATDYNSALKSRFTISRDNSKNTAYLQMNSLRAEDTAVYYCARDGGYSSSTLYAMDAWGQGTLVTVSSGGGGSGGGGSEVQLVQSGAEVKKPGASVKVSCKASGYTFNNYGIIWVRQAPGQGLEWMGWINTYTGKPTYAQKFQGRVTMTTDTSTSTAYMELSSLRSEDTAVYYCARKLFNTVAVTDNAMDYWGQGTTVTVSS VL: DIQMTQSPSSLSASVGDRVTITCRASEDIYNALAWYQQKPGKAPKLLIYNTDTLHTGVPSRFSGSGSGTDYTLTISSLQPEDFATYFCQHYFHYPRTFGQGTKVEIKRGGSGGGGSGDIQMTQSPSSLSASVGDRVTITCRASQDIENYLNWYQQKPGKAPKLLIYYTSRLQSGVPSRFSGSGSGTDFTLTISSLQPEDFATYFCQQGNTQPPTFGQGTKLEIKR
–	0.01 nM	DVD2766 (bispecific antibody, IgG1) VH: EVQLVESGGGLVQPGGSLRLSCAASGFTFSNYGVEWVRQAPGKGLEWVSGIWADGSTHYADTVKSRFTISRDNSKNTLYLQMNSLRAEDTAVYYCAREWQHGPVAYWGQGTLVTVSSASTKGPEVQLVESGGGLVQPGGSLRLSCAASGFSLTNNNVNWVRQAPGKGLEWVGGVWAGGATDYNSALKSRFTISRDNSKNTAYLQMNSLRAEDTAVYYCARDGGYSSSTLYAMDAWGQGTLVTVSS VL: DIQMTQSPSSLSASVGDRVTITCKASQLVSSAVAWYQQKPGKAPKLLIYWASTLHTGVPSRFSGSGSGTDFTLTISSLQPEDFATYYCQQHYRTPFTFGQGTKLEIKRTVAAPSVFIFPPDIQMTQSPSSLSASVGDRVTITCRASEDIYNALAWYQQKPGKAPKLLIYNTDTLHTGVPSRFSGSGSGTDYTLTISSLQPEDFATYFCQHYFHYPRTFGQGTKVEIKR
–	0.002 nM	DVD3283 (bispecific antibody, IgG1) VH: EVQLVQSGAEVKKPGASVKVSCKASGYTFANYGIIWVRQAPGQGLEWMGWINTYTGKPTYAQKFQGRVTMTTDTSTSTAYMELSSLRSEDTAVYYCARKLFTTMDVTDNAMDYWGQGTTVTVSSGGGGSGGGGSEVQLQQSGPELVTPGASVKISCKASGYTFTKYWLGWVKQSHGKSLEWIGDIYPGYDYTHYNEKFKDTATLTVDKSSSIAYMEIRGLTSEDSAVYYCARSDGSSTYWGQGTLVTVSA VL: DIQMTQSPSSLSASVGDRVTITCRASQDISQYLNWYQQKPGKAPKLLIYYTSRLQSGVPSRFSGSGSGTDFTLTISSLQPEDFATYFCQQGNTWPPTFGQGTKLEIKRGGSGGGGSGDVQMIQSPSSLSASLGDIVTMTCTSSQNIVHSNGNTYLEWFQQKPGKAPKLLIYKVSNRFSGVPSRFSGSRYGTDFTLTISSLEDEDLATYFCFQVSHVPYTFGGGTKLEIKR
–	0.012 nM	DVD3284 (bispecific antibody, IgG1) VH: EVQLVQSGAEVKKPGASVKVSCKASGYTFANYGIIWVRQAPGQGLEWMGWINTYTGKPTYAQKFQGRVTMTTDTSTSTAYMELSSLRSEDTAVYYCARKLFTTMDVTDNAMDYWGQGTTVTVSSASTKGPEVQLQQSGPELVTPGASVKISCKASGYTFTKYWLGWVKQSHGKSLEWIGDIYPGYDYTHYNEKFKDTATLTVDKSSSIAYMEIRGLTSEDSAVYYCARSDGSSTYWGQGTLVTVSA VL: DIQMTQSPSSLSASVGDRVTITCRASQDISQYLNWYQQKPGKAPKLLIYYTSRLQSGVPSRFSGSGSGTDFTLTISSLQPEDFATYFCQQGNTWPPTFGQGTKLEIKRTVAAPDVQMIQSPSSLSASLGDIVTMTCTSSQNIVHSNGNTYLEWFQQKPGKAPKLLIYKVSNRFSGVPSRFSGSRYGTDFTLTISSLEDEDLATYFCFQVSHVPYTFGGGTKLEIKR
–	0.002 nM	DVD3286 (bispecific antibody, IgG1) VH: EVQLVQSGAEVKKPGASVKVSCKASGYTFANYGIIWVRQAPGQGLEWMGWINTYTGKPTYAQKFQGRVTMTTDTSTSTAYMELSSLRSEDTAVYYCARKLFTTMDVTDNAMDYWGQGTTVTVSSASTKGPEVQLQQSGPELVTPGASVKISCKASGYTFTKYWLGWVKQSHGKSLEWIGDIYPGYDYTHYNEKFKDTATLTVDKSSSIAYMEIRGLTSEDSAVYYCARSDGSSTYWGQGTLVTVSA VL: DIQMTQSPSSLSASVGDRVTITCRASQDISQYLNWYQQKPGKAPKLLIYYTSRLQSGVPSRFSGSGSGTDFTLTISSLQPEDFATYFCQQGNTWPPTFGQGTKLEIKRTVAAPSVFIFPPDVQMIQSPSSLSASLGDIVTMTCTSSQNIVHSNGNTYLEWFQQKPGKAPKLLIYKVSNRFSGVPSRFSGSRYGTDFTLTISSLEDEDLATYFCFQVSHVPYTFGGGTKLEIKR
–	0.018 nM	DVD3287 (bispecific antibody) VH: EVQLVQSGAEVKKPGASVKVSCKASGYTFANYGIIWVRQAPGQGLEWMGWINTYTGKPTYAQKFQGRVTMTTDTSTSTAYMELSSLRSEDTAVYYCARKLFTTMDVTDNAMDYWGQGTTVTVSSASTKGPSVFPLAPEVQLQQSGPELVTPGASVKISCKASGYTFTKYWLGWVKQSHGKSLEWIGDIYPGYDYTHYNEKFKDTATLTVDKSSSIAYMEIRGLTSEDSAVYYCARSDGSSTYWGQGTLVTVSA VL: DIQMTQSPSSLSASVGDRVTITCRASQDISQYLNWYQQKPGKAPKLLIYYTSRLQSGVPSRFSGSGSGTDFTLTISSLQPEDFATYFCQQGNTWPPTFGQGTKLEIKRTVAAPDVQMIQSPSSLSASLGDIVTMTCTSSQNIVHSNGNTYLEWFQQKPGKAPKLLIYKVSNRFSGVPSRFSGSRYGTDFTLTISSLEDEDLATYFCFQVSHVPYTFGGGTKLEIKR
